Measurements reported in patent publication US20260109776A1 (Amgen, published 2026).

Legend:
[1] = target: human CD40 (human, UniProt P25942 21-277); experiment: cell-based or functional assay
[2] = target: T1, huCD40(1-193) (human, UniProt P25942 21-193); experiment: Octet
T1 construct: also called soluble human CD40
Protocol: (§1) A panel of mesothelin×CD40 bispecific antibodies were generated in the IgG-scFv format (Table 13) and evaluated for binding to soluble forms of human and cynomolgus monkey CD40 and human and cynomolgus monkey mesothelin using the Octet assay (Table 14). Association rate (Kon), disassociation rate (Kdis), and equilibrium binding constant (KD) were calculated. […] These bispecific antibodies were next evaluated for their ability to induce mesothelin-dependent activation of human B cells. CHO cells expressing human mesothelin were seeded into a 96 well plate. The next day varying concentrations of the mesothelin×CD40 IgG-scFv antibodies were added to the wells along with purified human B cells and the plates were incubated for an additional 48 hours. Upregulation of CD86, a marker of CD40-mediated B cell activation, was quantified on B cells by flow cytometry.

[3] = target: T2, cynoMSLN(296-598) (cynomolgus monkey); experiment: Octet
T2 chain: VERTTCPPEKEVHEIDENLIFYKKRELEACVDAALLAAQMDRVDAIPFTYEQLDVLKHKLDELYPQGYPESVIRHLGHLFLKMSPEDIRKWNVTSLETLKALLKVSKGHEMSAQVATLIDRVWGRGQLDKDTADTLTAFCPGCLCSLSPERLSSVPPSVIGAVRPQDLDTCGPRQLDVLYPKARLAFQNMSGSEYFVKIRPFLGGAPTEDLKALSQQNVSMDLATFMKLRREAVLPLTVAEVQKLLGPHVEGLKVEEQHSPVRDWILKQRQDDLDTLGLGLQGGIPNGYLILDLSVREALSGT
Protocol: as §1

[4] = target: T3, huMSLN(296-598) (human, UniProt Q13421 296-598); experiment: Octet
T3 construct: also called soluble human mesothelin
Protocol: as §1
T3 sequence (Q13421 other isoform, or with tags, fused parts or gaps): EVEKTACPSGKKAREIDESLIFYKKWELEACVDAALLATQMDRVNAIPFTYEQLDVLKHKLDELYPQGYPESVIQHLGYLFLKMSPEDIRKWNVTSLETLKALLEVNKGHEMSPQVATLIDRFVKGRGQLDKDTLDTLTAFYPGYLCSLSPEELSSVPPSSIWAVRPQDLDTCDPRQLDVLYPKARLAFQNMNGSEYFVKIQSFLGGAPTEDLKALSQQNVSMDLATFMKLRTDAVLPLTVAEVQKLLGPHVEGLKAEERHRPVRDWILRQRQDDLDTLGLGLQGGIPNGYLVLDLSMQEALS

[5] = target: T4, cynoCD40(1-193) (cynomolgus monkey, UniProt P25942 21-193 (human entry)); experiment: Octet
T4 construct: also called soluble cynomolgus monkey CD40
T4 chain: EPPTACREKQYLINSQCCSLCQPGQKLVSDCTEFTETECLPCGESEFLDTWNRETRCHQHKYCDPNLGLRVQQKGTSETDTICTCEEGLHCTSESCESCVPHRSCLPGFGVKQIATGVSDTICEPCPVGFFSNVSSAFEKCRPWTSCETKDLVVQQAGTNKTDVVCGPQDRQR
Protocol: as §1

[6] = target: human CD40 on purified human B cells (human, UniProt P25942 21-277); experiment: cell-based or functional assay
[7] = target: T5, huCD40(1-193) (human, UniProt P25942 21-193); experiment: Octet, soluble antigen
T5 construct: Soluble form used in Octet; also called human CD40; soluble human CD40

[8] = target: huMSLN(296-598) (human, UniProt Q13421 296-598); experiment: Octet, soluble antigen
Target sequence in this assay (Q13421 other isoform, or with tags, fused parts or gaps): as the sequence (Q13421 other isoform, or with tags, fused parts or gaps) above

[9] = target: T6, cynoCD40(1-193) (cynomolgus monkey, UniProt P25942 21-193 (human entry)); experiment: Octet, soluble antigen
T6 construct: Soluble form used in Octet; also called cynomolgus monkey CD40
T6 chain: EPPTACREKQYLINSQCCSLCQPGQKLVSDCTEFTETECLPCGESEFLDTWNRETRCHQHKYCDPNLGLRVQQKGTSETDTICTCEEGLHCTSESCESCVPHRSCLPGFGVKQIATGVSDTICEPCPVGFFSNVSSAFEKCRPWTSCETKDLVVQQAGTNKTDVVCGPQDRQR

Binder	EC50 (nM), CD86 upregulation on human B cells with huMSLN-CHO cells [1]	Kd [2]	koff [2]	kon [2]	Kd [3]	koff [3]	kon [3]	Kd [4]	koff [4]	kon [4]	Kd [5]	koff [5]	kon [5]	EC50 (nM), CD86 upregulation on human B cells in the presence of CHO cells expressing human mesothelin [6]	Kd [7]	koff [7]	kon [7]	Kd [8]	koff [8]	kon [8]	other results
6053-2 (bispecific antibody, IgG-scFv: IgG (CD40) 39C2, scFv (MSLN) 4H6) heavy: not shown light: QSALTQPASVSGSPGQSITISCTGTSSDVGNYNLVSWYQQHPGKAPKLMIYEVNRRPSGVSNRFSGSKSGNTASLTISGLQAEDEAEYYCCSYAGRDTFVVFGGGTKLTVLGQPKAAPSVTLFPPSSEELQANKATLVCLISDFYPGAVTVAWKADSSPVKAGVETTTPSKQSNNKYAASSYLSLTPEQWKSHRSYSCQVTHEGSTVEKTVAPTECS	0.00403 nM	900 pM	0.000427 s⁻¹	453000 M⁻¹ s⁻¹	4300 pM	0.00109 s⁻¹	252000 M⁻¹ s⁻¹	400 pM	0.000151 s⁻¹	341000 M⁻¹ s⁻¹	500 pM	0.000125 s⁻¹	263000 M⁻¹ s⁻¹								
6023-2 (bispecific antibody, IgG-scFv: IgG (CD40) 39C2, scFv (MSLN) 6F4) heavy: not shown light: QSALTQPASVSGSPGQSITISCTGTSSDVGNYNLVSWYQQHPGKAPKLMIYEVNRRPSGVSNRFSGSKSGNTASLTISGLQAEDEAEYYCCSYAGRDTFVVFGGGTKLTVLGQPKAAPSVTLFPPSSEELQANKATLVCLISDFYPGAVTVAWKADSSPVKAGVETTTPSKQSNNKYAASSYLSLTPEQWKSHRSYSCQVTHEGSTVEKTVAPTECS	0.00281 nM	1000 pM	0.00044 s⁻¹	431000 M⁻¹ s⁻¹	16000 pM	0.00535 s⁻¹	326000 M⁻¹ s⁻¹	1100 pM	0.00046 s⁻¹	432000 M⁻¹ s⁻¹	900 pM	0.000413 s⁻¹	447000 M⁻¹ s⁻¹								
6055-2 (bispecific antibody, IgG-scFv: IgG (CD40) 37A6, scFv (MSLN) 4H6) heavy: not shown light: SYELTQPPSVSVSPGQTASITCSGERLGNKYICWYQQKPGQSPVLVIYQDFKRPSGIPERFSGSNSGITATLTISGTQAMDEADYYCQAWDSRTVVFGGGTKLTVLGQPKAAPSVTLFPPSSEELQANKATLVCLISDFYPGAVTVAWKADSSPVKAGVETTTPSKQSNNKYAASSYLSLTPEQWKSHRSYSCQVTHEGSTVEKTVAPTECS	0.00434 nM	500 pM	0.000787 s⁻¹	1.46e+06 M⁻¹ s⁻¹	6100 pM	0.00109 s⁻¹	179000 M⁻¹ s⁻¹	400 pM	0.000211 s⁻¹	552000 M⁻¹ s⁻¹	800 pM	0.00057 s⁻¹	745000 M⁻¹ s⁻¹								
6054-2 (bispecific antibody, IgG-scFv: IgG (CD40) 37A6, scFv (MSLN) 6F4) heavy: not shown light: SYELTQPPSVSVSPGQTASITCSGERLGNKYICWYQQKPGQSPVLVIYQDFKRPSGIPERFSGSNSGITATLTISGTQAMDEADYYCQAWDSRTVVFGGGTKLTVLGQPKAAPSVTLFPPSSEELQANKATLVCLISDFYPGAVTVAWKADSSPVKAGVETTTPSKQSNNKYAASSYLSLTPEQWKSHRSYSCQVTHEGSTVEKTVAPTECS	0.00333 nM	800 pM	0.000333 s⁻¹	438000 M⁻¹ s⁻¹	17000 pM	0.00578 s⁻¹	336000 M⁻¹ s⁻¹	1300 pM	0.000462 s⁻¹	367000 M⁻¹ s⁻¹	1400 pM	0.0004 s⁻¹	277000 M⁻¹ s⁻¹								
6051-2 (bispecific antibody, IgG-scFv: IgG (CD40) 36F3, scFv (MSLN) 4H6) heavy: not shown light: EIVLTQSPGTLSLSPGERATLSCRASQSVSSNYLAWYQQKPGQAPRALIYAASNRAAGISDRFSGSGSGTDFTLTISRLEPEDFAVYFCQQYGSSPLTFGGGTKVEIKRTVAAPSVFIFPPSDEQLKSGTASVVCLLNNFYPREAKVQWKVDNALQSGNSQESVTEQDSKDSTYSLSSTLTLSKADYEKHKVYACEVTHQGLSSPVTKSFNRGEC	0.00375 nM	3500 pM	0.000431 s⁻¹	124000 M⁻¹ s⁻¹	5500 pM	0.00105 s⁻¹	191000 M⁻¹ s⁻¹	200 pM	0.000135 s⁻¹	599000 M⁻¹ s⁻¹	4700 pM	0.000466 s⁻¹	100000 M⁻¹ s⁻¹								
Anti-CD40xMSLN IgG-Fab molecule 5966-1 (bispecific antibody) chain 1: QVQLVESGGGLVKPGGSLRLSCAASGFTFSDYYMTWIRQAPGKGLEWISYISSSGSTIYYADSVKGRFTISRDNAKNSLYLQMNSLRAEDTAVYYCARDRNSHFDYWGQGTLVTVSS chain 2: DIQMTQSPSSVSASVGDRVTITCRASQGITRWLAWYQQKPGKAPKLLIYAASVLQSGVPSRFSGSGSGTDFTLTISSLQPEDFATYYCQQSNSFPRTFGQGTKVEIK chain 3: QVQLVESGGGLVKPGGSLRLSCAASEFTFSDYYMSWIRQAPGKGLEWVSYISRSGDTIYYADSVKGRFTISRDNAKNSLYLQMNGLRAEDTAVYYCARDLAAGATGGLDCWGQGTLVTVSS chain 4: SYELTQPPSVSVSPGQTASITCSGERLGNKYICWYQQKPGQSPVLVIYQDFKRPSGIPERFSGSNSGITATLTISGTQAMDEADYYCQAWDSRTVVFGGGTKLTVLG														0.008 nM	700 pM	0.000403 s⁻¹	584000 M⁻¹ s⁻¹	200 pM	0.000176 s⁻¹	878000 M⁻¹ s⁻¹	Kd [9]: 900 pM; koff [9]: 0.000358 s⁻¹; kon [9]: 420000 M⁻¹ s⁻¹
Anti-CD40xMSLN IgG-Fab molecule 5968-1 (bispecific antibody) chain 1: QVQLVESGGGLVKPGGSLRLSCAASGFTFSDYYMSWIRQAPGKGLEWISYISSSESIIYYVDSVKGRFTISRDNAKNSLYLQMNSLRAEDTAVYYCARDVGSHFDYWGQGTLVTVSS chain 2: DIQMTQSPSSVSASVGDRVTITCRASQDISRWLAWYQQKPGKAPKLLISAASRLQSGVPSRFSGSGSGTDFTLTISSLQPEDFAIYYCQQAKSFPRTFGQGTKVEIKR chain 3: EVQLLESGGGLVQPGGSLRLSCAASGFTFSRNAMSWVRQAPGKGLEWVSATGGSGISTYYADSVKGRFTISRDNSKNTLYLQMNSLRAEDTAVYYCARGYSNSWWYFDYWGQGTLVTVSS chain 4: QSALTQPASVSGSPGQSITISCTGTSSDVGNYNLVSWYQQHPGKAPKLMIFEVNQRPSGVSNRFSGSKSGTTASLTISGLQAADEADYFCCSYTTSSTYVIFGGGTKLTVLGQPKAAPSVTLFPPSSEELQANKATLVCLISDFYPGAVTVAWKADSSPVKAGVETTTPSKQSNNKYAASSYLSLTPEQWKSHRSYSCQVTHEGSTVEKTVAPTECS														0.004 nM	400 pM	0.000256 s⁻¹	650000 M⁻¹ s⁻¹	300 pM	0.000353 s⁻¹	1.03e+06 M⁻¹ s⁻¹	Kd [9]: 700 pM; koff [9]: 0.000414 s⁻¹; kon [9]: 598000 M⁻¹ s⁻¹
Anti-CD40xMSLN IgG-Fab molecule 5991-1 (bispecific antibody) chain 1: EVQLLESGGGLVQPGGSLRLSCAASGFTFSRNAMSWVRQAPGKGLEWVSATGGSGISTYYADSVKGRFTISRDNSKNTLYLQMNSLRAEDTAVYYCARGYSNSWWYFDYWGQGTLVTVSS chain 2: QSALTQPASVSGSPGQSITISCTGTSSDVGNYNLVSWYQQHPGKAPKLMIFEVNQRPSGVSNRFSGSKSGTTASLTISGLQAADEADYFCCSYTTSSTYVIFGGGTKLTVLGQPKAAPSVTLFPPSSEELQANKATLVCLISDFYPGAVTVAWKADSSPVKAGVETTTPSKQSNNKYAASSYLSLTPEQWKSHRSYSCQVTHEGSTVEKTVAPTECS chain 3: QVQLVESGGGLVKPGGSLRLSCAASGFTFSDYYMSWIRQAPGKGLEWISYISSSESIIYYVDSVKGRFTISRDNAKNSLYLQMNSLRAEDTAVYYCARDVGSHFDYWGQGTLVTVSS chain 4: DIQMTQSPSSVSASVGDRVTITCRASQDISRWLAWYQQKPGKAPKLLISAASRLQSGVPSRFSGSGSGTDFTLTISSLQPEDFAIYYCQQAKSFPRTFGQGTKVEIKR														0.004 nM	400 pM	0.000467 s⁻¹	1.08e+06 M⁻¹ s⁻¹	1300 pM	0.000242 s⁻¹	181000 M⁻¹ s⁻¹	Kd [9]: 200 pM; koff [9]: 0.000423 s⁻¹; kon [9]: 1.86e+06 M⁻¹ s⁻¹
